Assay: soluble on expression in E. coli; label from the status in PepcDB or PDB records

Sequence | soluble on expression in E. coli
MGSDKIHHHHHHENLYFQGMSKVFVNISLSLDGFMAPEGMDMAHFSDPTYKNWGAKWGALMAWALSQQYLREKLKLGTGGETGPVNDMVRHTFERTGAHIMGKRMFEGGERGWPEEAPFHTPVYVLTHERRNPWVRPGGTTFYFVNDGPEQALALAREAAGERDIRISGGANVIQQYLNLGLVDELEIALIPVIFGGGRRLFENLHEPLPQFRIDRVLASPTATHLRYVRL | soluble
GPGSMMRTQQVDPDLTPVLAALASRINRDLPTVVELLCRRLVVQWNRAYLRKDWRFVENASRYLGWLFLLNVVEVDIIYQLLLKHLTSEKRREEDIDQAAKLFRETFKVMSLKERRSFHEQILTPFRDLLAMDDEELRLSTRSQAVLESCLKEVQEWERRKEREEAIPDYLVLFDLEMQQRHEMDLDEKYPTEDALDRYAFDAEYDTHEEQYEAVRKAILGEDWEVELLQQV | not soluble
MSLNALKREDAANKKLGVLIYENVQPMDVIGPWEVFATWKTILDASIDMFLVAESSNEVCCANQISLKPHCEFNNSPQFDYLLVPGGAGRREQVNNPRLISFLKKQAQNTDYLLSVCTGAFLLHAAGLLTHHEATTYWRAMPELKSFEDVQLVEKRIVKSGKVWTTGGISSGIDLAFEFISTIAGNDVAGKIQLLFEYFPECKLYSQPAMVSELPSYYATKKDEAVLEMNLPDYIKEYFKKSEGHHHHHH | soluble
MGSDKIHHHHHHMPLERLNFLGLRNLAALDMRPGPGINLITGANGSGKTSLLEGMHVLGMARSFRTQKLKHAIAHDADAVTLHGRVAGDPPVALGVRRARDASELEIRLDGERGVRVARLAEALPLQLINPDAFRLLEGSPAARREFLDWGVFHVKHEFFEAWRRVRRALKHRNALLRHDRIDARSMRVWEQELAHWSELLDALRSEYMAQFAKAFEDTLHELLPLSGLSLRYYRGWDKQRGLLEVLEGGRDTDRQMGFTQQGPQRADLRLRIGKRAAVEELSRGQQKLVVSALKLAQGRLLDELTGRTCVYLIDDLPAELDVTHRRIFCHWLERLRCQVFITSVEREALANAWQSETDVAMFHVEHGRLLTE | not soluble
MAGEHIKVIYFDGRGRAESIRMTLVAAGVDYEDERISFQDWPKIKPTIPGGRLPAVKVTDDHGHVKWMLESLAIARYMAKKHHMMGETDEEYYSVEKLIGQAEDVEHEYHKTLMKPQEEKEKITKEILNGKVPVLFNMICESLKGSTGKLAVGDKVTLADLVLIAVIDHVTDLDKGFLTGKYPEIHKHRENLLASSPRLAKYLSNRPATPF | soluble
MGSDKIHHHHHHMKDIANTPLVSIICSTYNHGLYISQCLDGFLMQKTNFPFEILIHDDASTDNTPDIIREYEHNHPQVIRPIYQKENKYSKKEDIFAKYQCSRVRGKYIAICEGDDYWIDPLKLQKQIDFLENNPDYGMIYTTSKVYNQKKGKIEEDIIGRKFNGYIELLSGNCIPTLTSCIRSALVMEYLKEVEPKSKNWLMGDYPMWLWISYYHKIKFLPESTTVYRVLEESASHSNDIQKYERFILSTIDITAFYIHKFNTPLTEPYLRSLSCFYYDLYDKYMCLGMYKKARHYSKLINPSYVSARMRRRVRRFHLRFIQIRLAKWFDIKGKERK | not soluble
MWRCIVVISSDRRPEMPFKPLVTAGIESLLNTFLYRSPALKTARSRLLGKVLRVEVKGFSTSLILVFSERQVDVLGEWAGDADCTVIAYASVLPKLRDRQQLAALIRSGELEVQGDIQVVQNFVALADLAEFDPAELLAPYTGDIAAEGISKALRGGAKFLHHGIKRQQCYVAEAITEEWRMAPGPLEVAWFAEETAAVERAVDALTKRLEKLEAK | not soluble
MVCDEKRYAIREVAEITGVKPVTLRAWQRRYNLVQPDRTEKGHRLFTDQDIEMIRQIQSWLAKGVAIGKVGALLQSGVSESESIPQPVGQLEECETLLTALAALQRSKAEQIIATVLKEYPLSVMQAQFVQPVTEALERVKGPLRSLQIGLFRTLMLSKLAFILDAENKAAVKGKCLCISLDEAGSLNAWLWALAWAENGHQVTLLEAVDDIRGLLENPGLAQYQILALHAHRALPAAQQSALASLQQQFGEQCVLSNVLQQLQS | not soluble
AHHHHHHGSIHIIEEYFRPYPARKKVAQILWEAGMSVKDGKIYVKGVEVPISGIAQVAGVNRKIVYHTIEYIESKPALKLLFENLSPRTSLISIAPLMGWEVLELTIQKGKYEKTLAKVLESLAERRVRVIEIFGSNPYEEKSKAFLVVEGIVPFEVISSLREEGSLERIVIHTPEKEKERMICPKCEIKYCPRKIFISTR | soluble
MPAAGQAPGPECPDVLIIGGGPAGCAAAIVLAQQGWAVTLLEKEQHPRFHIGESLLPMNIPILERLGVLEQVRDIGVLKRGADFPNDAGGYNTFRFSHALDAKADYAFQVPRAQFDQVLFARAREVGVDAREQVKVESVAFDGEQPVLQARGVDGVQQFRPRYLLDASGRDTFMGNRLKLKRANAKHQSAAVFSHFRGVTRRPGEDAGNISIYRHAHGWMWLIPLPDDVMSVGAVCYPDYMKTRKGDSEGFLLRTLALNPEVAARMADAERVAPVHATGNYAYECTRMSGPRWLLLGDAYTFVDPMFSSGVFLAMHSAERGAAMVDAVLRAPHREASLQRALSRELARGLSEFKWFIYRFTSPTMRALFAQPQNVWQVEQAVVAMLAGDVFDSPKVRRRLRVFRAIYSVTALSMLPRAWHAWRHRRRQARLGFDGDTLHRDAPLEHHHHHH | not soluble
VTEEEIHAMLEEGSVAGIIEQQEHEMVRNVFRLDDRQLGSLMVPRADIIYLDTALPLEENMKRVVESEHSRFPVCHNGLQSLLGVVNAKQLLAQTIKGGVTNLAEHLQPCVYVPETLTGMELLDHFRTSGTQMVFVVDEYGEIQGLVTLQDMLEAVTGEFA | not soluble
MGSDKIHHHHHHMKQNLTLILMNEAVREGWREWMEKVRKVLPQTDAERPVTWIAAERLAQENGRMVRLVELLREHRPVLSYRVKEEAGLLILVAYHRHGSSSDFLLETAEAYFRERDCGGFLFLCRMQASINAYDEYPHLNVLCNRLAGLLFRFRRERASEYRKGIPPMFSGADLQEVEKYLPHLRGCSFREEIALALPKVKNVEELARECAMSVNTLGRRFKEELNTTPHRWLTEQRKAHVTSLLADTDMPLQEIADVCGFATPSYLWDFCKKHLKATPAEIREIARCARTV | not soluble
MGSDKIHHHHHHMKVLLYLEAENYLRKSGIGRAIKHQAKALSLVGQHFTTNPRETYDLVHLNTYGLKSWLLMIKAQKAGKKVIMHGHSTEEDFRNSFIFSNLLSPWFKKYLCHFYNKADAIITPTLYSKSLIESYGVKSPIFAVSNGIDLEQYGADPKKEAAFRRYFDIKEGEKVVMGAGLFFLRKGIDDFVKVAQAMPDVRFIWFGETNKWVIPAQVRQMVNGNHPKNLIFPGYIKGDVYEGAMTGADAFFFPSREETEGIVVLEALASRQHLVLRDIPVYYGWVDQSSAELATDIPGFIEALKKVFSGASNKVEAGYKVAQSRRLETVGHALVDVYKKVMEL | not soluble
MNLDDKALFLDAMEDVQPLKRHTDVHWQPTRNLKTPQRIDTLQLDNFLTTGFLDILPLNEPLEFRREGLQQGVIDKLRSGKYPQQASLNLLRQPVETCRKMLFRFILEAQKEGLRNVLIIHGKGREAKSHANIVRSYVARWLTEFEDVQAYCSALPHHGGGGACYVALRKTVQAKQDNWERHAKRSR | not soluble
MGHHHHHHSHMATSEILPSFVATMDASNFSFWQVLCSWLSNSPNYEEITKWYLGWKSMFSDQVLAHPSVKDKFNEALDIMNRAVSSNVGAYMQPGARENIAYLTHTERRKDFQYEAMQERREAENMAQRGIGVAASSVPMNFKDLIETKAEEHNIVFMPVIGKRHEGKQLYTFGRIVIYIDRGVVFVQGEKTWVPTSLQSLIDMAK | not soluble
MAEQISHKKSLRVSSLNKDRRLLLREFYNLENEPNKGRQEARIGEKASEAHSGEEQVTDVNIDTEANTEKPVKDDELSATEEDLKEGSEDAEEEIKNLPFKRLVQIHNKLLGKETETNNSIKNTIYENYYDLIKVNDLLKEITNANEDQINKLKQTVESLIKEL | soluble
MRDLKGIFSALLVSFNEDGTINEKGLRQIIRHNIDKMKVDGLYVGGSTGENFMLSTEEKKEIFRIAKDEAKDQIALIAQVGSVNLKEAVELGKYATELGYDCLSAVTPFYYKFSFPEIKHYYDTIIAETGSNMIVYSIPFLTGVNMGIEQFGELYKNPKVLGVKFTAGDFYLLERLKKAYPNHLIWAGFDEMMLPAASLGVDGAIGSTFNVNGVRARQIFELTKAGKLKEALEIQHVTNDLIEGILANGLYLTIKELLKLEGVDAGYCREPMTSKATAEQVAKAKDLKAKFLS | soluble

From the DeepSol protein solubility set
